Reference: patent US20110262445A1 (CEPHALON AUSTRALIA, published 2011)
Residue numbers refer to the chain shown, from its start. In names and notes the source's numbering stands.

T1: human IL-12 (human, UniProt P29460 23-328; P29459 23-219)
T1 construct: Recombinant (Peprotech); FLAG-tagged IL-12 in the flow cytometry assays, biotinylated in the IL-12Rβ2 assay; also called hIL-12
T1 sequence 1: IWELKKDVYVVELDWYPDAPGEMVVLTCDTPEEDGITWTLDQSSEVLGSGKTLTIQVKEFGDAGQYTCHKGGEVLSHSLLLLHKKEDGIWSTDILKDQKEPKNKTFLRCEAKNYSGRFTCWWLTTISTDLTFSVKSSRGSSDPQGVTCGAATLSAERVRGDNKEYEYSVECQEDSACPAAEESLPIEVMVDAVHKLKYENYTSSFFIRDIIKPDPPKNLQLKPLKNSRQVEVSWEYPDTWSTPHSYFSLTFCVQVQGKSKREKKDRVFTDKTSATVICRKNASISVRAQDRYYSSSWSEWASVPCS
T1 sequence 2: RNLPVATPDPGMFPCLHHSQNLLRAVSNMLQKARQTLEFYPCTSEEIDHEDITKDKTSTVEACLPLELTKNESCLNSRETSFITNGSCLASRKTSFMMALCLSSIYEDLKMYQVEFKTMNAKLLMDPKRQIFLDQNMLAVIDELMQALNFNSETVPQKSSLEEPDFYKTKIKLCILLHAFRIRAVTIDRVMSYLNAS

T2: human IL-23 (human, UniProt P29460 23-328; Q9NPF7 20-189)
T2 construct: Recombinant (Ebioscience); HIS-tagged in flow cytometry, biotinylated in some assays; also called hIL-23; rhIL-23
T2 sequence 1: T1 sequence 1
T2 sequence 2: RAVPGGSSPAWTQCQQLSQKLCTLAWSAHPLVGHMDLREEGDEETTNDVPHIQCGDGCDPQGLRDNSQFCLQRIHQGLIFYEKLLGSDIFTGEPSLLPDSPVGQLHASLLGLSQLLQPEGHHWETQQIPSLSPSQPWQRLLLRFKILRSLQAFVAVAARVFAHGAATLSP

B1: Antibody 6 (antibody, human IgG1, kappa, V domains shown)
VH: EVQLQQSGADLVRSGASIKLSCTASGFNIKDYYMHWVKQRPEQGLEWIGWIDPENGDTEYAPKFQGKATMTADTSSNTAYLQLSSLTSEDTAVYYCNARKELRYFDVWGAGTTVTVSS
VL: DIVLTQSPATLSVTPGDSVSLSCRASQSISINLHWYQQKSHESPRLLIKFASQSISGIPSRFSGYGSGTDFTLSINSVETEDFGRYFCQQSNSWPLTFGAGTKLELKR
B2: Antibody 179 (antibody, human IgG1, kappa)
heavy: not shown
light: DIQMTQSPSSVSASVGDRVTITCRASQSISINLHWYQQKPGKAPKLLIYFASQSISGVPSRFSGSGSGTDFSLTINSLQTEDFATYYCQQSNSFPLTFGGGTKVEIKRTVAAPSVFIFPPSDEQLKSGTASVVCLLNNFYPREAKVQWKVDNALQSGNSQESVTEQDSKDSTYSLSSTLTLSKADYEKHKVYACEVTHQGLSSPVTKSFNRGEC
B3: Antibody 175 (antibody, human IgG1, kappa, V domains shown)
VH: EVQLVQSGAEVKKPGATVKISCKASGYAFSDYYLHWVRQAPEKGLEWMGWIDPENGDTEYAPKFQGRVTITADTSTDTGYLELSSLRSEDTAVYYCAANKELRYFDVWGQGTLVTVSS
VL: DIQMTQSPSSVSASVGDRVTITCRASQSISINLHWYQQKPGKAPKLLIYFASQSISGVPSRFSGSGSGTDFSLTINSLQTEDFATYYCQQSNSFPLTFGGGTKVEIKR
B4: Antibody 199 (antibody, human IgG1, kappa, V domains shown)
VH: QVQLVQSGAEVKKPGASVKVSCKASGYTFTDYYLHWVRQAPGQGLEWMGWIDPENGDTEYAPKFQGRVTMTTDTSTSTAYMELRSLRSDDTAVYYCAANKELRYFDVWGQGTMVTVSS
VL: EIVMTQSPATLSVSPGERATLSCRASQSISINLHWYQQKPGQAPRLLIYFASQSISGIPARFSGSGSGTEFTLTISSLQSEDFAVYYCQQSNSFPLTFGGGTKVEIKR
B5: Antibody 191 (antibody, human IgG1, kappa, V domains shown)
VH: B4 VH
VL: B3 VL
B6: Antibody 204 (antibody, human IgG1, kappa, V domains shown)
VH: B4 VH with K12E, R67G
VL: B4 VL
notes: not the murine PMA204
B7: Antibody 200 (antibody, human IgG1, kappa, V domains shown)
VH: B4 VH with F29L
VL: B4 VL
B8: Antibody 206 (antibody, human IgG1, kappa, V domains shown)
VH: B4 VH with T28A
VL: B4 VL
B9: Antibody 201 (antibody, human IgG1, kappa, V domains shown)
VH: B4 VH with Y60S
VL: B4 VL
B10: Antibody 203 (antibody, human IgG1, kappa, V domains shown)
VH: B4 VH with Y60H
VL: B4 VL
B11: Antibody 197 (antibody, human IgG1, kappa, V domains shown)
VH: B4 VH with Q43R
VL: B3 VL
B12: Antibody 202 (antibody, human IgG1, kappa, V domains shown)
VH: B4 VH with F29L, Y60S
VL: B4 VL
notes: not the murine PMA202
B13: Antibody 196 (antibody, human IgG1, kappa, V domains shown)
VH: B4 VH with K12E, R67G
VL: B3 VL
B14: Antibody 75 (antibody, human IgG1, kappa, V domains shown)
VH: B3 VH with A28T, A40R, R67K
VL: B3 VL with Y49K, S65Y, T80P, T85R
B15: scFv combo. # 3 (scFv)
scFv: QVQLVQSGAEVKKPGASVKVSCKASGYAFTDYYLHWVRQAPGQGLEWMGWIDPENGDTEYAPKFQGRVTMTTDTSTSTAYMELRSLRSDDTAVYYCNANKELRYFDVWGQGTMVTVSSGGGGSGGGGSGGGGSEIVMTQSPATLSVSPGERATLSCRAPQSISINLHWYQQKPGQAPRLLIYFASQSISGIPARFSGSGSGTEFTLTISSLQSEDFAVYYCQQSNSFPLTFGGGTKVEIKR
notes: scFv-80 with VH T28A; VL S26P; not shown: proprietary C-terminal FLAG tag
B16: scFv combo. # 4 (scFv)
scFv: B15 scFv with A28T, F29L
notes: scFv-80 with VH F29L; VL S26P; not shown: proprietary C-terminal FLAG tag
B17: scFv combo. # 16 (scFv)
scFv: B15 scFv with A28T, F29L, P159S, S185R
notes: scFv-80 with VH F29L; VL S52R; not shown: proprietary C-terminal FLAG tag
B18: scFv combo. # 15 (scFv)
scFv: B15 scFv with A28T, F29L, P159S, S196F
notes: scFv-80 with VH F29L; VL S63F; not shown: proprietary C-terminal FLAG tag
B19: scFv combo. # 5 (scFv)
scFv: B15 scFv with P159S, S196F
notes: scFv-80 with VH T28A; VL S63F; not shown: proprietary C-terminal FLAG tag

molecular target: T1, human IL-12; assay: ELISA, coated IL-12
Summary of the method: (§1)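 Maxisorp plates were coated overnight at 4° C with cytokine at 1 μg/mL in carbonate buffer pH 9.6, then blocked for 1 hour at 25° C with 1% BSA in PBS. Antibody titrations were allowed to bind for 1 hour at 25° C and detected with goat anti-human IgG or anti-murine immunoglobulin HRP (1:2000, 1 hour), followed by TMB development stopped with 1M HCl. Binding is reported as absorbance. Readings were taken at 450 nm against a 620 nm reference.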

| binding result | Binder |
| --- | --- |
| no binding (tested: not given) | B1 |

molecular target: T1, human IL-12; assay: ELISA, coated IL-12; remark: another data set of the same source
Protocol: (§2) IL-12 (Peprotech), IL-23 (Ebioscience™), IL-12p40 (Ebioscience™) or IL-12p80 (Peprotech), was diluted to 1 μg/mL in carbonate coating buffer ([…] pH 9.6) and coated onto a 96 well plate (Nunc™, Maxisorp™) overnight at 4° C. The plate was then washed three times with wash buffer (0.01M PBS pH 7.2, 0.05% Tween-20) and then three times with 0.01M PBS pH 7.2. The wells were then blocked by adding 200 μl of blocking buffer (1% w/v BSA in 0.01 M PBS pH 7.2) to each well and incubating the plate at 25° C. for 1 hour. The antibody was diluted in antibody diluent (1% w/v BSA, 0.05% Tween-20 in 0.01M PBS pH 7.2) sufficient to generate a titration curve. The wells were incubated with the antibody for 1 hour at 25° C. The plate was then washed as previously described. Goat anti-human immunoglobulin G (H+L) antibody HRP conjugate (Zymed®) at 1:2000 in antibody diluent was used to detect bound primary antibody. Goat anti-murine immunoglobulin antibody HRP conjugate (Dako) at 1:2000 in antibody diluent was used to detect bound murine antibody. After incubation at 25° C. for 1 hour the plate was washed again as previously described. TMB substrate solution (Zymed®) was added to each well and the colour allowed to develop; the reaction was terminated by adding 1M HCl to the wells. The absorbance of each well was determined at 450 nm (ref. 620 nm).

| binding result | Binder |
| --- | --- |
| binds | B2 |
| binds | B3 |
| binds | B4 |
| binds | B5 |
| binds | B6 |
| binds | B7 |
| binds | B8 |
| binds | B9 |
| binds | B10 |
| binds | B11 |
| binds | B12 |
| binds | B13 |

molecular target: T1, human IL-12; assay: ELISA, coated IL-12; remark: another data set of the same source
Summary of the method: as §1

| binding result | Binder |
| --- | --- |
| binds | B14 |

molecular target: T2, human IL-23; assay: ELISA, coated IL-23
Summary of the method: as §1

| binding result | Binder |
| --- | --- |
| binds | B14 |

molecular target: T2, human IL-23; assay: ELISA, coated IL-23; remark: another data set of the same source
Protocol: as §2

| binding result | Binder |
| --- | --- |
| binds | B2 |
| binds | B3 |
| binds | B4 |
| binds | B5 |
| binds | B6 |
| binds | B7 |
| binds | B9 |
| binds | B10 |
| binds | B11 |
| binds | B12 |
| binds | B13 |

molecular target: T1, human IL-12; assay: SPR, single 81 nM analyte, scFv via FLAG

| Kd [nM] | koff [s⁻¹] | kon [M⁻¹ s⁻¹] | Binder |
| --- | --- | --- | --- |
| 0.029 | 4.5e-05 | 1.6e+06 | B15 |
| 0.027 | 4.8e-05 | 1.8e+06 | B16 |
| 0.05 | 7.5e-05 | 1.5e+06 | B17 |
| 0.039 | 6.4e-05 | 1.7e+06 | B18 |
| 0.038 | 6.5e-05 | 1.7e+06 | B19 |
